{"source": "patent US20120071422A1", "about": "(MEDICAL DIAGNOSTIC LABORATORIES, published 2012)", "binders": {"B1": {"name": "recombinant human IL-23 cytokine (p19 + p40) (ligand)", "chain 1": "RAVPGGSSPAWTQCQQLSQKLCTLAWSAHPLVGHMDLREEGDEETTNDVPHIQCGDGCDPQGLRDNSQFCLQRIHQGLIFYEKLLGSDIFTGEPSLLPDSPVGQLHASLLGLSQLLQPEGHHWETQQIPSLSPSQPWQRLLLRFKILRSLQAFVAVAARVFAHGAATLSP", "chain 2": "IWELKKDVYVVELDWYPDAPGEMVVLTCDTPEEDGITWTLDQSSEVLGSGKTLTIQVKEFGDAGQYTCHKGGEVLSHSLLLLHKKEDGIWSTDILKDQKEPKNKTFLRCEAKNYSGRFTCWWLTTISTDLTFSVKSSRGSSDPQGVTCGAATLSAERVRGDNKEYEYSVECQEDSACPAAEESLPIEVMVDAVHKLKYENYTSSFFIRDIIKPDPPKNLQLKPLKNSRQVEVSWEYPDTWSTPHSYFSLTFCVQVQGKSKREKKDRVFTDKTSATVICRKNASISVRAQDRYYSSSWSEWASVPCS", "notes": "Disulfide-linked heterodimer"}, "B2": {"name": "recombinant Δ9 protein (soluble truncated human IL-23Rα, exon 9 deletion splice variant), C-terminal Flag tag (receptor)", "chain": "GITNINCSGHIWVEPATIFKMGMNISIYCQAAIKNCQPRKLHFYKNGIKERFQITRINKTTARLWYKNFLEPHASMYCTAECPKHFQETLICGKDISSGYPPDIPDEVTCVIYEYSGNMTCTWNAGKLTYIDTKYVVHVKSLETEEEQQYLTSSYINISTDSLQGGKKYLVWVQAANALGMEESKQLQIHLDDIVIPSAAVISRAETINATVPKTIIYWDSQTTIEKVSCEMRYKATTNQTWNVKEFDTNFTYVQQSEFYLEPNIKYVFQVRCQETGKRYWQPWSSLFFHKTPETVPQVTSKAFQHDTWNSGLTVASISTGHLTSGLKEGSYC", "modifications": "N-glycosylated (sites not given)", "notes": "Said to be a monomer; also called Δ9 variant; Δ9 IL-23Rα; not shown: C-terminal Flag tag"}, "B3": {"name": "recombinant Δ8,9 protein (soluble truncated human IL-23Rα, exon 8 and 9 deletion splice variant), C-terminal Flag tag (receptor)", "chain": "GITNINCSGHIWVEPATIFKMGMNISIYCQAAIKNCQPRKLHFYKNGIKERFQITRINKTTARLWYKNFLEPHASMYCTAECPKHFQETLICGKDISSGYPPDIPDEVTCVIYEYSGNMTCTWNAGKLTYIDTKYVVHVKSLETEEEQQYLTSSYINISTDSLQGGKKYLVWVQAANALGMEESKQLQIHLDDIVIPSAAVISRAETINATVPKTIIYWDSQTTIEKVSCEMRYKATTNQTWNVKEFDTNFTYVQQSEFYLEPNIKYVFQVRCQETGKRYWQPWSSLFFHKTPETGLKEGSYC", "notes": "not shown: C-terminal Flag tag"}}, "key": {"[1]": {"molecular_target": "T1, recombinant human His-tagged soluble IL-12Rβ1 (human, UniProt P42701 24-545, limits assumed)", "T1 construct": "Bought (R&D Systems); also called sIL-12Rβ1; shIL-12Rβ1; not shown: His tag", "experiment": "anti-Flag immunoprecipitation of Δ9 with IL-23 (200 ng) and sIL-12Rβ1 (1 µg); IL-23 bound to Δ9", "method": "Human IL12Rβ1 also partners with human IL12Rβ2 to form the cell-surface IL-12 receptor. We wanted to know whether Δ9 could link to human IL-12Rβ1 via IL-23, or indeed bind it directly.\n(§1) Culture medium from Δ9 transfection experiments was concentrated using Amicon ultra centrifugal filter 30K (Millipore), then Δ9 protein was affinity purified using anti-FLAG M2 affinity gel (Sigma). The immuno-complex was precipitated, washed and resuspended in PBS. 200 ng of either IL-12 or IL-23 was added to the suspension and incubated at 4° C. for 2 hours. Reprecipitated FLAG-tagged Δ9 immuno-complex was again precipitated and eluted with excess FLAG peptide. The eluted product was analysed by immunoblot using anti-human p40 or anti-human IL-23R to detect the common p40 subunit of IL-12/IL-23 or Δ9, respectively. […] After extensive washing, the eluted product was analysed using anti-HIS (Invitrogen, Carlsbad Calif.), anti-human p40 or anti-human IL-23R(R&D Systems) to detect soluble IL-12Rβ1, the p40 subunit of IL-23 or Δ9, respectively. To examine the N-glycosylation modification on soluble human IL-23Rα, purified Δ9 was treated with N-Glycosidase F (PNGase F) at 37° C. for 1 hour followed by immunoblotting using anti-human IL-23R. […] Immuno-precipitation was performed and analysed by immunoblot, probing with anti-hIL-12/23p40."}, "[2]": {"molecular_target": "T1, recombinant human His-tagged soluble …", "experiment": "anti-Flag immunoprecipitation without IL-23, anti-His immunoblot", "description": "On the cell surface, human IL-23Rα combines with human IL-12Rβ1 to form the heterodimeric IL-23 receptor. Human IL12Rβ1 also partners with human IL12Rβ2 to form the cell-surface IL-12 receptor. We wanted to know whether Δ9 could link to human IL-12Rβ1 via IL-23, or indeed bind it directly.\nas §1, with “respectively.” for “respectively. To examine the N-glycosylation modification on soluble human IL-23Rα, purified Δ9 was treated with N-Glycosidase F (PNGase F) at 37° C. for 1 hour followed by immunoblotting using anti-human IL-23R.”"}, "[3]": {"molecular_target": "B1", "experiment": "anti-Flag immunoprecipitation, anti-p40 immunoblot", "method": "200 ng of human IL-23 cytokine was added to the immunoprecipitation reaction. The presence of IL-23 in the precipitate was examined by immunoblot using anti-hIL-12/23 p40 antibody.\nIn addition, we also prepared two (2) more IL-23Rα deletion mutants; namely, 1-250 mutant and 1-200 mutant. These deletion mutants were generated by PCR (See, FIG. 18). Together, all of the four (4) IL-23Rα protein variants (FIG. 18) were tagged with Flag sequence at the C-terminus. […] The culture media were collected 48 hours post-transfection. These four (4) deletion proteins were immunoprecipitated using anti-Flag affinity gel. 200 ng of IL-23 cytokine was added to the immunoprecipitation assay. […] We speculate that the 1-200 mutant may be improperly folded or missing a critical domain that is essential for binding to IL-23 cytokine. […]\nCulture medium from Δ9 transfection experiments was concentrated using Amicon ultra centrifugal filter 30K (Millipore), then Δ9 protein was affinity purified using anti-FLAG M2 affinity gel (Sigma). […] The eluted product was analysed by immunoblot using anti-human p40 or anti-human IL-23R to detect the common p40 subunit of IL-12/IL-23 or Δ9, respectively. […] After extensive washing, the eluted product was analysed using anti-HIS (Invitrogen, Carlsbad Calif.), anti-human p40 or anti-human IL-23R(R&D Systems) to detect soluble IL-12Rβ1, the p40 subunit of IL-23 or Δ9, respectively."}, "[4]": {"molecular_target": "T2, recombinant IL-12 (p35 + p40) (UniProt P29459 23-219; P29460 23-328)", "T2 sequence (looked up) 1": "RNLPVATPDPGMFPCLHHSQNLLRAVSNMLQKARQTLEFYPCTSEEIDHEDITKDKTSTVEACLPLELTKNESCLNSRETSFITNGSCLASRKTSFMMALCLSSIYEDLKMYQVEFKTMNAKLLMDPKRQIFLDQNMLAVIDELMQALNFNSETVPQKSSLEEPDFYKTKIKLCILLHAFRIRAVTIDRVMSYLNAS", "T2 sequence (looked up) 2": "B1 chain 2", "experiment": "anti-Flag immunoprecipitation, anti-hIL-12/23 p40 immunoblot", "method": "FIG. 17 depicts the binding specificity of the recombinant Δ9 protein. Immunoprecipitation experiments were performed using anti-Flag M2 affinity gel. Immunoblot experiment was performed to detect IL-12 and IL-23 in the precipitates using the anti-hIL-12/23 p40 (i.e., anti-human IL-12/23 p40). The recombinant Δ9 protein in the precipitates was detected by anti-human IL-23R. Only IL-23 but not IL-12 was detected in the reaction containing the recombinant Δ9 protein.\nas §1, with “Reprecipitated FLAG-tagged Δ9 immuno-complex was again precipitated and eluted with excess FLAG peptide.” left out, “respectively.” for “respectively. To examine the N-glycosylation modification on soluble human IL-23Rα, purified Δ9 was treated with N-Glycosidase F (PNGase F) at 37° C. for 1 hour followed by immunoblotting using anti-human IL-23R.”"}, "[5]": {"molecular_target": "B1", "experiment": "immunoprecipitation and competitive ELISA", "method": "We developed a competitive ELISA to further examine the ability of the deletion protein mutants (i.e., Δ9, Δ8,9 and 1-250 mutant) to compete (i.e., interfere) the binding of IL-23 cytokine to the full-length extracellular domain of IL-23Rα (See, “Materials & Methods”). Recombinant IL-23Rα-Fc fusion protein from R&D (2 μg/ml) was coated on the ELISA plate. IL-23 cytokine (50 ng) was added in the absence or presence of the deletion protein mutants as competitors.\nRecombinant human IL-23R-Fc (2 μg/ml) (from R&D) was coated onto plates as a capture reagent. Biotinylated anti-p40 antibody (1:250) (which specifically recognizes the p40 subunit of IL-23) was used as a detection antibody. Streptavidin—horseradish peroxidase (HRP) (1:500) was added to detect the biotinlyated anti-p40 antibody. The peroxidase activity (representing the level of IL-23 captured onto plates) was measured by addition of a tetramethylbenzidine (TMB) substrate (100 μl/well). The color intensity was directly proportion to the amount of the bound IL-23 protein. The color was measured at optical density (OD) 450 nm using a microtiter plate reader."}}}
{"binder": "B1", "values": [{"measurement": "binding result", "setting": "[1]", "value": "binds"}]}
{"binder": "B2", "values": [{"measurement": "binding result", "setting": "[2]", "value": "no binding (tested: 1 µg)"}, {"measurement": "binding result", "setting": "[3]", "value": "binds"}, {"measurement": "binding result", "setting": "[4]", "value": "no binding (tested: 200 ng)"}]}
{"binder": "B3", "values": [{"measurement": "binding result", "setting": "[5]", "value": "binds"}]}
